Measured values reported in patent publication US12552837B2, “Bicyclic peptide ligands with detectable moieties and uses thereof” (BicycleRD Limited, priority 2017, dated 2026).
*1 amine or outer side, *2 acyl side, *3 side chain or, on linkers, in order; H or OH if unused. Where a SMILES comes first, the peptide text is derived from it. Bridges are numbered along the chain shown (N, C = ends). [ ]: non-standard residue; d: D form. The star is where a group is joined. DOTA = O=C(O)CN1CCN(CC(=O)O)CCN(CC(=O)*)CCN(CC(=O)O)CC1; 1Nal = N[C@@H](Cc1cccc2ccccc12)C(=O)O; TBMB = c1c(C[*:1])cc(C[*:3])cc1C[*:2]; Palmitoyl = CCCCCCCCCCCCCCCC(=O)*; Tle = CC(C)(C)[C@H](N)C(=O)O; Aib = CC(C)(N)C(=O)O; βAla = NCCC(=O)O; Sar = CNCC(=O)O

Assays:
HT1080 tumor = assay: Organ distribution of 177Lu-labelled peptides in HT1080 xenograft mice; assay type: in vivo, BALB/c nu/nu mice
Description: (§1) General procedure for radiolabelling with Lu-177.
(§2) • 50 μL 0.25 M Na-Acetate buffer pH 5.2+0.1% Tween 20; • 10 μL [Lu-177]LuCl3 in 0.05 M HCl; and • 2 μL of the diluted peptide (2 nmols). […]
(§3) Organ distribution studies, general method: For organ distribution, the respective dose is prepared by dilution of the labeling reaction mixture in injection buffer (0.25 M Na-Acetate pH 7+0.05% Tween20). The ^177Lu-radiolabeled peptide was injected via the tail vein of the nu/nu mice (50 kBq per mouse), transplanted with the respective cell line. At indicated time points after injection the animals were sacrificed. Blood, heart, lung, spleen, liver, kidney, muscle, brain, femur, and the tumor were dissected, blotted dry, and weighed. The radioactivity was measured with a γ-counter (CobraII; Canberra Packard) along with a sample of the injection solution to calculate the percentage injected dose per gram of tissue (% ID/g).
(§4) The γ- and β-emitter ^177LuCl3 (NEZ307D, Perkin Elmer, in 0.04 M HCl), with a t1/2 of 6.7 days was used for both in vivo biodistribution and internalization studies. Labeling reactions were performed by adding 10 μL ^177LuCl3 (˜10 MBq) in 50 mM HCl, 2 μL of the diluted peptide (1 mM solution in 50 mM HEPES buffer pH 7+0.1% Tween 20 diluted from a 10 mM DMSO stock) to 50 μL 50 mM HEPES buffer pH 7 supplemented with 0.1% Tween 20. The reaction mixture was incubated at 98° C. for 10 minutes. The radiochemical yield (RCY) was determined using high performance liquid chromatography (HPLC) system equipped with a Latek P402 (Latek, Eppelheim, Germany), a HITACHI variable UV detector (absorbance was measured at 214 and 254 nm) and a gamma detector (Bioscan, WA, USA), using a Chromolith RP-18 column (100×4.6 mm; Merck). The analytical HPLC run was performed at 4 mL/min, using a linear A (0.1% trifluoroacetic acid (TFA) in water) to B (0.1% TFA in acetonitrile) gradient (0% B to 100% B in 6 min). Thin-layer chromatography was performed in parallel to confirm the results of the radio-HPLC. The RCY was generally >95%, and thus, the output of labelling reactions was directly diluted with the appropriate buffer and further unlabeled peptide if required, to use in subsequent experiments.
(§5) 5×10^6 cells of HT1080 were subcutaneously inoculated into the right trunk of male 6-week-old BALB/c nu/nu mice (Charles River Laboratories). The tumors were grown for approximately 1 week, to a maximum size of ˜200 mm^3. Respective doses were prepared by mixing a fixed quantity of 5 pmoles ^177Lu labelled peptides (at approx. 50 kBq) with different quantities of non-labelled peptide (derived from 1 mM stock solution in 0.25 M sodium acetate pH 7+0.05% Tween20) in 100 μL injection buffer (0.25 M sodium acetate pH 7+0.05% Tween20). 3 animals were used per dose and timepoint. Radiolabelled peptide solutions were injected via the tail vein, followed by sacrifice at various time points. Organs of interest (blood, heart, lung, spleen, liver, kidney, muscle, small intestine, brain, HT1080 tumor) were dissected, blotted dry, and weighed. The radioactivity was measured using a gamma counter and calculated as % ID/g.

MT1-MMP hemopexin domain = MT1-MMP hemopexin domain (Homo sapiens, UniProt P50281); assay: Fluorescence polarization direct binding / competition assay to MT1-MMP hemopexin domain
Description: Direct Binding Fluorescence Polarization or Anisotropy Assays are performed by titrating a constant concentration of fluorescent tracer (here, the fluoresceinated bicyclic peptide to be studied) with its binding partner (here, the MT1-MMP hemopexin domain). As the concentration of binding partner increases during the titration, the polarization signal changes in proportion to the fraction of bound and unbound material. This allows determination of […] (Kd) quantitatively. Assay data can be fit using standard ligand binding equations.
Typically, concentrations of the tracer are ideally well below the Kd of the tracer: titrant pair, and concentrations chosen are usually at ˜1 nM or less. The titrant (binding partner) concentration is varied from 0.1 nM up to typically 5 μM. The range is chosen such that the maximum change in fluorescent polarization can be observed. Buffers employed are phosphate buffered saline in the presence of 0.01% Tween. Experiments were run in black 384 well low-bind/low volume plates (Corning 3820), and the fluorescent polarization signal was measured using a BMG Pherastar FS plate reader. Fluorescent tracers referred to in the text are bicyclic peptides that have been fluoresceinated using 5,6-carboxyfluorescein. Fluoresceination may be performed on the N-terminal amino group of the peptide, which is separated from the bicycle core sequence by a sarcosine spacer (usually Sar10 (SEQ ID NO: 73)). This can be done during Fmoc solid phase synthesis or post-synthetically (after cyclization with the molecular scaffold reagent and purification) if the N-terminal amino group is unique to the peptide. Fluoresceination can also be performed on the C-terminus, usually on a Lysine introduced as the first C-terminal residue, which is then separated from the bicycle core sequence by a sarcosine spacer (usually Sar6 (SEQ ID NO: 69)). Thus, N-terminal tracers can have a molecular format described as Fluo-Ala-Sar10-A (SEQ ID NO: 72) (BicycleCoreSequence), and (BicycleCoreSequence)-A-Sar6-K (Fluo) (SEQ ID NO: 67) for a C-terminally fluoresceinated construct.
Fluorescent tracers used in the Examples are A-(17-69)-A-Sar6-K (Fluo) (SEQ ID NO: 67), A-(17-69-07)-A-Sar6-K (Fluo) (SEQ ID NO: 67), and A-(17-69-12)-A-Sar6-K (Fluo) (SEQ ID NO: 67). Due to the acidic nature of the 17-69 fluorescent peptides, they were typically prepared as concentrated DMSO stocks, from which dilution were prepared in 100 mM Tris pH 8 buffer.
Due to their high affinities to the MT1-MMP Hemopexin domain (PEX), the fluoresceinated derivatives of 17-69-07 and 17-69-12 (denoted as 17-69-07-N040 and 17-69-12-N005, respectively) can be used for competition experiments (using FP for detection). […] Dissociation of the complex can be measured quantitatively, and the Kd of the competitor (titrant) to the target protein determined. The advantage of the competition method is that the affinities of non-fluoresceinated bicyclic peptides can be determined accurately and rapidly.
Subsequently, the non-fluorescent competitor bicyclic peptide (usually just the bicycle core sequence) is titrated, such that it displaces the fluorescent tracer from the target protein. The displacement of the tracer is measured and associated with a drop in fluorescence polarization. The drop in fluorescence polarization is proportional to the fraction of target protein bound with the non-fluorescent titrant, and thus is a measure of the affinity of titrant to target protein. […]

[1] = Organ distribution of 177Lu-labelled peptides in HT1080 xenograft mice; assay type: in vivo, BALB/c nu/nu mice; settings: male, BALB/c nu/nu, mouse, HT1080 tumor, iv, total radioactivity; 1 h p.i. of 150 pmoles
Description: as §1, §2, §3, §4, §5

Row | Structure (SMILES) | blocking of tumor uptake at a dose of 500 pmoles (HT1080 tumor; 1 h post injection) | blocking of tumor uptake using 5 nmoles (HT1080 tumor; 1 h post injection) | Kd (MT1-MMP hemopexin domain) | tissue uptake at 1 h [1] | other results
1 | CC(C)[C@H](NC(=O)[C@@H](CC(=O)O)NC(=O)[C@H](Cc1c[nH]cn1)NC(=O)CN(C)C(=O)CN(C)C(=O)CN(C)C(=O)CN(C)C(=O)CN(C)C(=O)CN(C)C(=O)CN(C)C(=O)CN(C)C(=O)CN(C)C(=O)CN(C)C(=O)CCNC(=O)CN1CCN(CC(=O)O)CCN(CC(=O)O)CCN(CC(=O)O)CC1)C(=O)N1CCC[C@H]1C(=O)N[C@H]1CSCc2cc3cc(c2)CSC[C@H](NC(=O)[C@H](Cc2cccc4ccccc24)NC(=O)[C@H](Cc2ccccc2)NC(=O)C(C)(C)NC(=O)CNC(=O)[C@H](Cc2cccc4ccccc24)NC(=O)[C@@H]2CCCN2C1=O)C(=O)N1CCC[C@H]1C(=O)N[C@@H](C(C)(C)C)C(=O)N[C@@H](CC(N)=O)C(=O)N[C@@H](CCCNC(=N)N)C(=O)NC(C)(C)C(=O)N[C@H](CC(=O)O)C(=O)N[C@H](C(N)=O)CSC3 [I-17] ({DOTA-βAla}-[Sar][Sar][Sar][Sar][Sar][Sar][Sar][Sar][Sar][Sar]H[dD]VPCP[1Nal]G[Aib]F[1Nal]CP[Tle]NR[Aib][dD]C-NH2; linker 15-22-29 via TBMB) | slightly blocked | nearly completely blocked |  |  | 
2 | C[C@H](NC(=O)CN(C)C(=O)CN(C)C(=O)CN(C)C(=O)CN(C)C(=O)CN(C)C(=O)CN(C)C(=O)CN(C)C(=O)CN(C)C(=O)CN(C)C(=O)CN(C)C(=O)CCNC(=O)CN1CCN(CC(=O)O)CCN(CC(=O)O)CCN(CC(=O)O)CC1)C(=O)N[C@H]1CSCc2cc3cc(c2)CSC[C@H](NC(=O)[C@@H](C)NC(=O)[C@H](Cc2cccc4ccccc24)NC(=O)[C@H](CCC(=O)O)NC(=O)[C@H](CC(N)=O)NC(=O)[C@@H](C)NC1=O)C(=O)N[C@@H](CCC(=O)O)C(=O)N[C@@H](CC(=O)O)C(=O)N[C@@H](Cc1ccccc1)C(=O)N[C@@H](Cc1ccc(O)cc1)C(=O)N[C@@H](CC(=O)O)C(=O)N[C@@H](C(C)(C)C)C(=O)N[C@H](C(N)=O)CSC3 [I-24] ({DOTA-βAla}-[Sar][Sar][Sar][Sar][Sar][Sar][Sar][Sar][Sar][Sar]AC[dA]NE[1Nal][dA]CEDFYD[Tle]C-NH2; linker 12-18-25 via TBMB) | slightly blocked | nearly completely blocked | 1.37 ± 0.53 nM | 7.04 ± 2.83 %ID/g | signal in the tumor compared to I-23 (HT1080 tumor; 1 h post injection): slightly lower; tumor uptake compared to 17-69-07-N144 (HT1080 tumor; 1 h post injection): significantly greater
3 | C[C@H](NC(=O)CN1CCN(CC(=O)O)CCN(CC(=O)O)CCN(CC(=O)O)CC1)C(=O)N[C@H]1CSCc2cc3cc(c2)CSC[C@H](NC(=O)[C@H](C)NC(=O)[C@H](Cc2cccc4ccccc24)NC(=O)[C@H](CCC(=O)O)NC(=O)[C@H](CC(N)=O)NC(=O)[C@@H](C)NC1=O)C(=O)N[C@@H](C)C(=O)N[C@@H](CC(=O)O)C(=O)N[C@@H](Cc1ccccc1)C(=O)N[C@@H](Cc1ccc(O)cc1)C(=O)N[C@@H](CC(=O)O)C(=O)N[C@@H](C(C)(C)C)C(=O)N[C@H](C(N)=O)CSC3 [I-26] ({DOTA}-AC[dA]NE[1Nal]ACADFYD[Tle]C-NH2; linker 2-8-15 via TBMB) |  |  | > 5000 nM |  | tumor uptake compared with the binding variant I-23 (HT1080 tumor; organ distribution, FIG. 8): essentially absent
4 | C[C@H](NC(=O)CN(C)C(=O)CN(C)C(=O)CN(C)C(=O)CN(C)C(=O)CN(C)C(=O)CN(C)C(=O)CN(C)C(=O)CN(C)C(=O)CN(C)C(=O)CN(C)C(=O)CCNC(=O)CN1CCN(CC(=O)O)CCN(CC(=O)O)CCN(CC(=O)O)CC1)C(=O)N[C@H]1CSCc2cc3cc(c2)CSC[C@H](NC(=O)[C@H](C)NC(=O)[C@H](Cc2cccc4ccccc24)NC(=O)[C@H](CCC(=O)O)NC(=O)[C@H](CC(N)=O)NC(=O)[C@@H](C)NC1=O)C(=O)N[C@@H](C)C(=O)N[C@@H](CC(=O)O)C(=O)N[C@@H](Cc1ccccc1)C(=O)N[C@@H](Cc1ccc(O)cc1)C(=O)N[C@@H](CC(=O)O)C(=O)N[C@@H](C(C)(C)C)C(=O)N[C@H](C(N)=O)CSC3 [I-27] ({DOTA-βAla}-[Sar][Sar][Sar][Sar][Sar][Sar][Sar][Sar][Sar][Sar]AC[dA]NE[1Nal]ACADFYD[Tle]C-NH2; linker 12-18-25 via TBMB) |  |  | > 5000 nM | 0.28 ± 0.05 %ID/g | 
5 | CCCCCCCCCCCCCCCC(=O)NCCC(=O)N(C)CC(=O)N(C)CC(=O)N(C)CC(=O)N(C)CC(=O)N(C)CC(=O)N[C@@H](CCCCNC(=O)CN1CCN(CC(=O)O)CCN(CC(=O)O)CCN(CC(=O)O)CC1)C(=O)N(C)CC(=O)N(C)CC(=O)N(C)CC(=O)N(C)CC(=O)N(C)CC(=O)N(C)CC(=O)N(C)CC(=O)N(C)CC(=O)N(C)CC(=O)N(C)CC(=O)N[C@@H](C)C(=O)N[C@H]1CSCc2cc3cc(c2)CSC[C@H](NC(=O)[C@H](C)NC(=O)[C@H](Cc2cccc4ccccc24)NC(=O)[C@H](CCC(=O)O)NC(=O)[C@H](CC(N)=O)NC(=O)[C@@H](C)NC1=O)C(=O)N[C@@H](C)C(=O)N[C@@H](CC(=O)O)C(=O)N[C@@H](Cc1ccccc1)C(=O)N[C@@H](Cc1ccc(O)cc1)C(=O)N[C@@H](CC(=O)O)C(=O)N[C@@H](C(C)(C)C)C(=O)N[C@H](C(N)=O)CSC3 [I-29] ({Palmitoyl-βAla}-[Sar][Sar][Sar][Sar][Sar]K(DOTA)[Sar][Sar][Sar][Sar][Sar][Sar][Sar][Sar][Sar][Sar]AC[dA]NE[1Nal]ACADFYD[Tle]C-NH2; linker 18-24-31 via TBMB) |  |  |  |  | tumour uptake (HT1080 tumor; 750 pmole per mouse, 6 hour timepoint): 4.8%
